The values that follow come from paper PMC3000947.

What is called Km is the concentration of substrate that gives half-maximal velocity. By kcat/Km is commonly meant the turnover number divided by the Michaelis constant.

Substrate in data set [1]: O=C1C(O)=CC(=O)c2c(O)cc(O)cc21
In words: purified protein. To be noted: 2 mM GPP, 50 mM Hepes-NaOH pH 7.5, 5 mM MgCl2, 30 °C.

Substrate in data set [2]: Oc1cc(O)c2ccccc2c1
Put plainly: purified protein. Particulars: 2 mM GPP, 50 mM Hepes-NaOH pH 7.5, 5 mM MgCl2, 30 °C.

B1: Fur7 (Streptomyces sp. KO-3988) (protein)
chain: MPGTDDVAVDVASVYSAIEKSAGLLDVTAAREVVWPVLTAFEDVLEQAVIAFRVATNARHEGDFDVRFTVPEEVDPYAVALSRSLIAKTDHPVGSLLSDIQQLCSVDTYGVDLGVKSGFKKVWVYFPAGEHETLARLTGLTSMPGSLAGNVDFFTRYGLADKVDVIGIDYRSRTMNVYFAAPSECFERETVLAMHRDIGLPSPSEQMFKFCENSFGLYTTLNWDTMEIERISYGVKTENPMTFFARLGTKVEHFVKNVPYGVDTQKMVYAAVTSSGEEYYKLQSYYRWRSVSRLNAAYIAARDKEST
Consider B1, for which, in “purified protein [1]”, the Km was 48 ± 2 µM, the kcat was 28 ± 3 × 10^-3 s^-1 and the catalytic efficiency (kcat/Km) was found to be 580 M⁻¹ s⁻¹. In addition, in “purified protein [2]”, the Michaelis-Menten constant (Km) is 320 ± 20 µM, the kcat is given as 0.13 ± 0.05 × 10^-3 s^-1 and the kcat/Km stood at 0.41 M⁻¹ s⁻¹.
